{"source": "paper PMC2413007", "about": "(2008)", "molecular_target": "soluble form of human recombinant TLR2 (extracellular domain Glu 21-Leu 590) (human, UniProt O60603 21-590)", "sequence (O60603 21-590)": "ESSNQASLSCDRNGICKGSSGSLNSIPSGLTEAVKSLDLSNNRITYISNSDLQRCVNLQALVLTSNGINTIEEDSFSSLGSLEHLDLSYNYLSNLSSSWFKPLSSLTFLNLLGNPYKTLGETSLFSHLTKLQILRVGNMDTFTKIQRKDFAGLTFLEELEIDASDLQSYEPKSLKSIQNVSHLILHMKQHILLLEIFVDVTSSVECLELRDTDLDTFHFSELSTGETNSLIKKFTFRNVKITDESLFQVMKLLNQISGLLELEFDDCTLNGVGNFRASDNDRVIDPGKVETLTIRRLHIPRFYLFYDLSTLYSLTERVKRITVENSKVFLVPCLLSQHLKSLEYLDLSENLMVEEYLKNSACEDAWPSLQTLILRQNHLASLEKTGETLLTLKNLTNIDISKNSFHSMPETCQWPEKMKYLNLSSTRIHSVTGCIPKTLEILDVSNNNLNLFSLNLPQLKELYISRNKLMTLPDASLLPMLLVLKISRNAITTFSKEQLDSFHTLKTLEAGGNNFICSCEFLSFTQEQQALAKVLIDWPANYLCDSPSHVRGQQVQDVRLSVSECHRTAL", "note": "No end group written: not given here. Pam2 = lipid part of the lipopeptide Pam2CSK4", "data": [{"binder": "C(Pam2)SKKKK", "note": "[Pam2CSK4 lipopeptide]", "values": [{"measurement": "Kd", "result": 5.34, "unit": "µM"}]}]}
